Test results from patent US20160058848A1.

Assays:
[1] = target: T1, human corin variant T555I, Q9Y5Q5
T1 chain: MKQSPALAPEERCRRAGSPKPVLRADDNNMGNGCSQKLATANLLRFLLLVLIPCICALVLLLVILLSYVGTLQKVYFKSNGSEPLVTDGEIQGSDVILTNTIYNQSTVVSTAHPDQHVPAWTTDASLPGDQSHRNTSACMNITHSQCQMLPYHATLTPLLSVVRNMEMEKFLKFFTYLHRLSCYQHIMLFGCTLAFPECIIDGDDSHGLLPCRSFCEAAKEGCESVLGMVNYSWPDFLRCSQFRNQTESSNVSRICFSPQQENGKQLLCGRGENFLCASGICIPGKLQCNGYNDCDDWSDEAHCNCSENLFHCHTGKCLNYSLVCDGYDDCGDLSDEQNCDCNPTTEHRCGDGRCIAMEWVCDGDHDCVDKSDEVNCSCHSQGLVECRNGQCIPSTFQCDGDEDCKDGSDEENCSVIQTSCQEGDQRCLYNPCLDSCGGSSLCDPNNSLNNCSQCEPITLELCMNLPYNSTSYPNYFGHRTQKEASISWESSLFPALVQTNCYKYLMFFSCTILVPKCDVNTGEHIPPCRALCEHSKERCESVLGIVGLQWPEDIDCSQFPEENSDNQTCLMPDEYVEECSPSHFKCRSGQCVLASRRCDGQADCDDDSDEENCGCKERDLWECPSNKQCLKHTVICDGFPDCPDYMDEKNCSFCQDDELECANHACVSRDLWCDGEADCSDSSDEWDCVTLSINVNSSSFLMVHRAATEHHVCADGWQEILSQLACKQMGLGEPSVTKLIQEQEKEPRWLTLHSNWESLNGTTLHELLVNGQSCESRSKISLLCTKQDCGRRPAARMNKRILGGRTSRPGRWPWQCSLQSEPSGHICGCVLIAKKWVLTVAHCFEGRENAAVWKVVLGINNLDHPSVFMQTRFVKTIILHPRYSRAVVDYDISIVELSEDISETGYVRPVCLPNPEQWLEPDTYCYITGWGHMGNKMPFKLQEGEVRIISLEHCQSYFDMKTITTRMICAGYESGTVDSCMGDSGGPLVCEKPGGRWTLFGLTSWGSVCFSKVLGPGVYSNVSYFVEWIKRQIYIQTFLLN

[2] = target: T2, human corin variant Q568P, Q9Y5Q5
T2 chain: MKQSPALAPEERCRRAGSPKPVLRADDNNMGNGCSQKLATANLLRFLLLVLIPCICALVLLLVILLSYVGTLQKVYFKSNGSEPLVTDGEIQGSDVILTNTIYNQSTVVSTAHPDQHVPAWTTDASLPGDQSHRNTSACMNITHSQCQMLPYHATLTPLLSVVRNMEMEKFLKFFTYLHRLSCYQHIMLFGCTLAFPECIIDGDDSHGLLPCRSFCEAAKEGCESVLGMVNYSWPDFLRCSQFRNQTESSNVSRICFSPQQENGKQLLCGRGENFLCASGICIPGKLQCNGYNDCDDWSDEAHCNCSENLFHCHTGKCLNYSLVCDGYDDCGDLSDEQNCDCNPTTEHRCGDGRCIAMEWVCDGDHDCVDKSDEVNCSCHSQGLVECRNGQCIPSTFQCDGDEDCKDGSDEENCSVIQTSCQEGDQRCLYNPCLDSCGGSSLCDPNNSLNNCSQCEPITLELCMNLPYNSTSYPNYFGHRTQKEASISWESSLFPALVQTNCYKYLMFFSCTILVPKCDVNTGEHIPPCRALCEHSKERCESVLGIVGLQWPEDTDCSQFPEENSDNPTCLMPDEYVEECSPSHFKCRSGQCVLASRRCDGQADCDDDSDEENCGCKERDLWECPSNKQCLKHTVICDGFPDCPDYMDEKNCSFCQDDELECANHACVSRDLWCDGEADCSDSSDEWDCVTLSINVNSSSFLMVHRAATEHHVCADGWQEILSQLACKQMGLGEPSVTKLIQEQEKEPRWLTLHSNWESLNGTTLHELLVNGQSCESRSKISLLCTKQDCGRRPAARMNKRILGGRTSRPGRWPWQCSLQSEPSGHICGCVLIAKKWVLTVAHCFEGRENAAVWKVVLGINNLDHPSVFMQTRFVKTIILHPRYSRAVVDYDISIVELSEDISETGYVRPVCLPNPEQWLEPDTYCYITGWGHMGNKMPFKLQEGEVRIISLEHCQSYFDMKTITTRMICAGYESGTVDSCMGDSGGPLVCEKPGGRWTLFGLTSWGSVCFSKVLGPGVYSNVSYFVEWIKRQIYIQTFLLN

[3] = target: T3, recombinant human corin wild-type (WT), Q9Y5Q5
T3 chain: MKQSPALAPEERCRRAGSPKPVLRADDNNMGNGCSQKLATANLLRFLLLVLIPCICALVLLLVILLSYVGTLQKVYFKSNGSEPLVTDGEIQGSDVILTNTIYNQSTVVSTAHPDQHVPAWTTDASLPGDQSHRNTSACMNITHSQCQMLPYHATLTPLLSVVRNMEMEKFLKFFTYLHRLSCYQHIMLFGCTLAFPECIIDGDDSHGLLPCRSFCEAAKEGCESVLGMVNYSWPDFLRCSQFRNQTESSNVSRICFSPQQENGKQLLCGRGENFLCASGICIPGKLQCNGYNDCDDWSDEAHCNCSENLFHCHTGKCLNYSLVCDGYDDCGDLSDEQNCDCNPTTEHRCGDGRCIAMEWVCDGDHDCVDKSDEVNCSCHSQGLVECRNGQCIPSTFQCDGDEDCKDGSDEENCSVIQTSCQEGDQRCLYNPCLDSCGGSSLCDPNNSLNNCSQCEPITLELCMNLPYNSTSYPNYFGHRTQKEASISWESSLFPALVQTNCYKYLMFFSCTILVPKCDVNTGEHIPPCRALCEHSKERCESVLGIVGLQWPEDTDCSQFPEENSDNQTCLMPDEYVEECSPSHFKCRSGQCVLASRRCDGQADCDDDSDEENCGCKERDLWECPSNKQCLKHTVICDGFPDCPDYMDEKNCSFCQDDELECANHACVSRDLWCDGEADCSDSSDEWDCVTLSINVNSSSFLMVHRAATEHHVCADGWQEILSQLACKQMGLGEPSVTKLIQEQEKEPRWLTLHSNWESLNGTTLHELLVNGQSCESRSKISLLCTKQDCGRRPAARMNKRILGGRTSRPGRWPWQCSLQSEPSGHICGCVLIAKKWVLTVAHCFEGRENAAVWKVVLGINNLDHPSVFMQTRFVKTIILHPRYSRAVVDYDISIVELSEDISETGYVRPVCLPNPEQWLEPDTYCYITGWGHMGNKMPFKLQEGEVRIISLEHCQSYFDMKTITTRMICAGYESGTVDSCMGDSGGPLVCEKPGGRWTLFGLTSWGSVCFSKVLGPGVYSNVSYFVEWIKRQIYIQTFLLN

B1: recombinant human proprotein convertase subtilisin/kexin-6 (PCSK6) with a C-terminal flag tag (protein)
chain: QVRSDPQALYFNDPIWSNMWYLHCGDKNSRCRSEMNVQAAWKRGYTGKNVVVTILDDGIERNHPDLAPNYDSYASYDVNGNDYDPSPRYDASNENKHGTRCAGEVAASANNSYCIVGIAYNAKIGGIRMLDGDVTDVVEAKSLGIRPNYIDIYSASWGPDDDGKTVDGPGRLAKQAFEYGIKKGRQGLGSIFVWASGNGGREGDYCSCDGYTNSIYTISVSSATENGYKPWYLEECASTLATTYSSGAFYERKIVTTDLRQRCTDGHTGTSVSAPMVAGIIALALEANSQLTWRDVQHLLVKTSRPAHLKASDWKVNGAGHKVSHFYGFGLVDAEALVVEAKKWTAVPSQHMCVAASDKRPRSIPLVQVLRTTALTSACAEHSDQRVVYLEHVVVRTSISHPRRGDLQIYLVSPSGTKSQLLAKRLLDLSNEGFTNWEFMTVHCWGEKAEGQWTLEIQDLPSQVRNPEKQGKLKEWSLILYGTAEHPYHTFSAHQSRSRMLELSAPELEPPKAALSPSQVEVPEDEEDYTAQSTPGSANILQTSVCHPECGDKGCDGPNADQCLNCVHFSLGSVKTSRKCVSVCPLGYFGDTAARRCRRCHKGCETCSSRAATQCLSCRRGFYHHQEMNTCVTLCPAGFYADESQKNCLKCHPSCKKCVDEPEKCTVCKEGFSLARGSCIPDCEPGTYFDSELIRCGECHHTCGTCVGPGREECIHCAKNFHFHDWKCVPACGEGFYPEEMPGLPHKVCRRCDENCLSCAGSSRNCSRCKTGFTQLGTSCITNHTCSNADETFCEMVKSNRLCERKLFIQFCCRTCLLAG
[1]
  PCSK6-mediated activation cleavage (Western blot, densitometry): PCSK6-mediated activation cleavage was detected in corin WT and variants T555I or Q568P, but not variant T555I/Q568P
[2]
  PCSK6-mediated activation cleavage (Western blot, densitometry): PCSK6-mediated activation cleavage was detected in corin WT and variants T555I or Q568P, but not variant T555I/Q568P
[3]
  PCSK6-mediated activation cleavage (Western blot, densitometry): PCSK6-mediated activation cleavage was detected in corin WT and variants T555I or Q568P, but not variant T555I/Q568P
